Our source for the EC50 and MFImax values is EP4714971A1 (Shanghai Hansoh Biomedical Co., Ltd., dated 2024).

To fix the notation:
B1: cAb3006 (antibody, V domains shown)
VH: QVQLQQSGAELARPGASVTLSCKASGYTFTDYEMHWVKETPVDGLEWIGGIDPETDNTVYNQKFKVKAILTEDKSSRIAYMELRSLTSEDSAVYYCTRGDWYFDVWGTGTTVTVSS
VL: DIVMSQSPSSQAVSVGEKVTMSCKSSQSLLNSRTRENYLAWYQQKAGQSPKLLIYWASTRDSGVPDRFTGSGSGTDFTLTINSVQAEDLAVYYCKQSYNLFTFGSGTKLEIK
B2: cAb3005 (antibody, V domains shown)
VH: B1 VH with T28K, D43N, D56E, I78T
VL: B1 VL with D76A
B3: cAb3003 (antibody, V domains shown)
VH: B1 VH with A12V, D31G, E39Q, D43H, V66G, R77S, I78T, S85R, V105I
VL: B1 VL with M4L, A46P, D61E, N82S, K95Q, K108I
B4: cAb3009 (antibody, V domains shown)
VH: QVQLQQSGAELVRPGASVTLSCKASGYTFTDYEMHWVRQTPVHGLEWIGGIDPESDNTVYNQKFKGKVTLTEDKSSSTAYMEFRSLTSEDSAVYYCTRGDWYFDVWGTGTTVTVSS
VL: B1 VL with S22T, A46P, D61E, T75A, N82S, K95G
B5: cAb3056 (antibody, V domains shown)
VH: QVQLQQSGPELMKPGASVKISCKASGYTFTDYYINWMKQRPGQGLEWIGWIFPGSDNPYYNEMFKDKATVSVDKSSSAVFMLLTSLTSEDSAVYFCARGRYYGLYTMDYWGQGTSVTVSS
VL: DIQMTQTTSSLSASLGDRVTISCRASQDIRNYLNWYQQKADGTVKFLIYYTSRLHSGVPSRFSGSGSGTDFSLTISNLEQEDVATYFCQQGNTLPWTFGGGTKVEIK
B6: cAb3014 (antibody, V domains shown)
VH: QVQLQQPGAELVKPGASVKLSCKASGYTFSIYWMHWVKQRPGQGLEWIGMIHPNSGSTNYNEKFKSKATLTVDKSSSTAYMQLSSLTSEDSAVYYCARGGNYVAMDYWGQGTSVTVSS
VL: QIVLTQSPAIMSASLGERVTMTCTASSSVSSSYLHWYQQKPGSSPKLWIYSTSNLASGVPARFSGSGSGTSYSLTISSMEAEDAATYYCHQYHRSLTFGSGTKLEIK
B7: cAb3034 (antibody, V domains shown)
VH: QVQLQQSGAELARPGASVKMSCKASGYTFTSYTMHWVKQRPGQGLEWIGYINPRSDYTKYNQKVKDKATLTADKSSSTAYMQLSSLTSEDSAVYYCARGGLGLDYWGQGTTLTVSS
VL: DIQMTQSPSSLSASLGERVSLTCRASQEISGYLSWLQQTPDGTIKRLIYAASTLHSGVPKRFSGSRSGSDYSLTISSLESEDFAGYYCLQYASYPYTFGGGTKLEIK
B8: cAb3046 (antibody, V domains shown)
VH: QVQLQQSGAELARPGASVKMSCKASGYTFTSYTMHWVKQRPGQGLEWIGYINPSSDYTKYNQKFKGKATMTADKSSSTAYMQLSSLTSEDSAVYYCGRGLVPFAYWGQGTLVTVSA
VL: B7 VL with S34I, T39K, H55D, F62V, G85D, Y96L, I106L
B9: cAb3031 (antibody, V domains shown)
VH: DVQLQESGPGLVKPSQSLSLTCSVTGQSITSGYFWNWIRQLPGNKLEWMGHIRYDGNNNYNPSLKNRVSITRDTSKNQFFLKLNSVTTEDTATYYCARWLLRYYAMDSWGQGTSVTVSS
VL: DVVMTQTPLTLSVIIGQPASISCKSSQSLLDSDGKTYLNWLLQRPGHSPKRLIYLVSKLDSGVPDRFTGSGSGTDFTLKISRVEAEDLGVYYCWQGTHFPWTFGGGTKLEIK
B10: PR3132 (antibody, human IgG1, kappa, V domains shown)
VH: EVQLVQSGAEVKKPGASVKISCKASGYTFTDYYINWMRQAPGQGLEWIGWIFPGSDNPYYNEMFKDRVTVTVDKSTSTVYMELSSLRSEDTAVYFCARGRYYGLYTMDYWGQGTLVTVSS
VL: DIQMTQSPSSLSASVGDRVTITCRASQDIRNYLNWYQQKPGKAPKFLIYYTSRLHSGVPSRFSGSGSGTDFTLTISSLQPEDFATYYCQQGNTLPWTFGGGTKVEIKR
notes: Humanized, human IgG1, kappa; also called humanized antibody of cAb3056
B11: PR3121 (antibody, human IgG1, kappa, V domains shown)
VH: EVQLVQSGAEVKKPGSSVKVSCKASGYTFSIYWMHWVRQAPGQGLEWIGMIHPNSGSTNYNEKFKSRATLTVDKSTSTAYMELSSLRSEDTAVYYCARGGNYVAMDYWGQGTLVTVSS
VL: DIQMTQSPSSLSASVGDRVTITCTASSSVSSSYLHWYQQKPGKAPKLLIYSTSNLASGVPSRFSGSGSGTDFTLTISSLQPEDFATYYCHQYHRSLTFGGGTKVEIKR
notes: Humanized, human IgG1, kappa; also called humanized antibody of cAb3014
B12: PR3123 (antibody, human IgG1, kappa, V domains shown)
VH: B11 VH
VL: B11 VL with M4L, I21M, A44S, L48W, F72Y
notes: Humanized, human IgG1, kappa; Only the order of listing separates it from PR3121; also called humanized antibody of cAb3014
B13: cAb025 (Fc fusion)
VHH: EVQLVESGGGSVQPGGSLRLSCEASGLTYNKDCMAWFRQAPGKEREGVAIINGVGRTRYADSVKGRFTISKDNAKNTLYLQMNNLKPEDTAMYYCAAQRASSSCGSLSRAWYDYWGRGTQVTVSS
notes: VHH-hFc expressed in 293 cells; Parent of PR0069; also called chimeric nanobody; camel-derived SEZ6 chimeric antibody; not shown: The human Fc (hFc) of the VHH-hFc construct
B14: cAb314 (Fc fusion)
VHH: HVQLVESGGGSVQAGGSLRLSCAVSGFTSSRGWMAWFRQAPGKEREGVAVIGRRSGDIYYADSLKGRFTISHDSTENTLYLQMNNLKPEDTATYYCAVGDQAGHVLTSSPYRYWGQGTQVTVSS
notes: VHH-hFc expressed in 293 cells; Parent of PR0071; also called chimeric nanobody; camel-derived SEZ6 chimeric antibody; not shown: The human Fc (hFc) of the VHH-hFc construct

Where a chain is given by its changes, count along the chain named.

The first test concerns the target T1, human SEZ6 expressed on stably transfected CHO-K1 cells (human, UniProt Q53EL9 20-994).
T1 construct: also called CHO-SEZ6; hSEZ6
T1 sequence: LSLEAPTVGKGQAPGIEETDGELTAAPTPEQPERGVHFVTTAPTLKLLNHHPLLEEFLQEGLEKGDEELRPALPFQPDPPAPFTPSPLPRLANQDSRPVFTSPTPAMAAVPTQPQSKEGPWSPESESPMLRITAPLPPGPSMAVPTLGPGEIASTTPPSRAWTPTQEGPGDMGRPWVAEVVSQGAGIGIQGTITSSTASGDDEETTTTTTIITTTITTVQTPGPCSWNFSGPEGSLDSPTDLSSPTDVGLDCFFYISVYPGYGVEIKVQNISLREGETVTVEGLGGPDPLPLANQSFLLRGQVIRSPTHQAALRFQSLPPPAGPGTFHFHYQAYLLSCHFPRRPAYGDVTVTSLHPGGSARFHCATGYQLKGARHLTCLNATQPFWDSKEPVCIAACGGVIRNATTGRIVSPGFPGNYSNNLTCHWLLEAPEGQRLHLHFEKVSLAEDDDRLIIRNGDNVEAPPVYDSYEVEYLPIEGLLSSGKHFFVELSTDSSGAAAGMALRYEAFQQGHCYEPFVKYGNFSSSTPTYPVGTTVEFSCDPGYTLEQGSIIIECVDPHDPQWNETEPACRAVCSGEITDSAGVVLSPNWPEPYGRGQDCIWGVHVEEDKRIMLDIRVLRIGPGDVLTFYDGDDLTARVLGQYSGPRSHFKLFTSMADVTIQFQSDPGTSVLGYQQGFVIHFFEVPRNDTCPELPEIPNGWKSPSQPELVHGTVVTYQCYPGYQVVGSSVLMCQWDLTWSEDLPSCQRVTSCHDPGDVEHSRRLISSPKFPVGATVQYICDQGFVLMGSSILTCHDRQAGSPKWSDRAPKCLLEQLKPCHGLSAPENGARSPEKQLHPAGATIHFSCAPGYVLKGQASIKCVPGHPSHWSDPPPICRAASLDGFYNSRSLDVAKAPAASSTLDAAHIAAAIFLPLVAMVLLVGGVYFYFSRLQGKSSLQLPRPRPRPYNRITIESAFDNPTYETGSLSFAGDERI
Kind of test: flow cytometry on CHO-K1 cells expressing human SEZ6.
The term EC50 denotes the concentration at which the effect is half-maximal. B1 registered a concentration giving a half-maximal response (EC50) of 0.35 nM and an MFImax of 4830.

B2 came in with a half-maximal effective concentration (EC50) of 0.52 nM and an MFImax of 4920.

Consider B3, for which the response was half-maximal at 0.68 nM (EC50) and the MFImax was determined as 5110.

Turning to B4, the concentration giving a half-maximal response (EC50) worked out at 0.81 nM and the MFImax was 5420.

Consider B5, for which the midpoint of the response, the EC50, lay at 0.42 nM and the MFImax worked out at 6560.

Consider B6, for which the concentration for a half-maximal effect (EC50) was 0.85 nM and the MFImax came to 3030.

In turn, B7 registered a 50% effective concentration (EC50) of 0.13 nM and an MFImax of 10100.

B8 came in with a 50% effective concentration (EC50) of 0.06 nM and an MFImax of 5180.

Consider B9, for which the midpoint of the response, the EC50, lay at 0.42 nM and the MFImax turned out to be 5180.

In the next test the target is T1, human SEZ6 expressed on stably …. Described as above. This is another data set of the same source.
Turning to B10, the EC50 amounted to 1.72 nM and the MFImax was found to be 1210.

B11 yielded a concentration giving a half-maximal response (EC50) of 0.45 nM and an MFImax of 1020.

B12: the EC50 worked out at 0.56 nM and the MFImax stood at 966.

The target is the same in the next test. Described as above. This is another data set of the same source.
B13 gave a concentration for a half-maximal effect (EC50) of 0.23 nM and an MFImax of 6600.

For the molecule B14, the midpoint of the response, the EC50, lay at 0.38 nM and the MFImax stood at 8480.

For another test, the target named is T2, cynomolgus monkey SEZ6 expressed on stably transfected CHO-K1 cells (cynomolgus monkey, UniProt Q53EL9 20-994 (human entry)).
T2 construct: also called CHO-cynoSEZ6; monkey SEZ6 on the cell membrane
T2 chain: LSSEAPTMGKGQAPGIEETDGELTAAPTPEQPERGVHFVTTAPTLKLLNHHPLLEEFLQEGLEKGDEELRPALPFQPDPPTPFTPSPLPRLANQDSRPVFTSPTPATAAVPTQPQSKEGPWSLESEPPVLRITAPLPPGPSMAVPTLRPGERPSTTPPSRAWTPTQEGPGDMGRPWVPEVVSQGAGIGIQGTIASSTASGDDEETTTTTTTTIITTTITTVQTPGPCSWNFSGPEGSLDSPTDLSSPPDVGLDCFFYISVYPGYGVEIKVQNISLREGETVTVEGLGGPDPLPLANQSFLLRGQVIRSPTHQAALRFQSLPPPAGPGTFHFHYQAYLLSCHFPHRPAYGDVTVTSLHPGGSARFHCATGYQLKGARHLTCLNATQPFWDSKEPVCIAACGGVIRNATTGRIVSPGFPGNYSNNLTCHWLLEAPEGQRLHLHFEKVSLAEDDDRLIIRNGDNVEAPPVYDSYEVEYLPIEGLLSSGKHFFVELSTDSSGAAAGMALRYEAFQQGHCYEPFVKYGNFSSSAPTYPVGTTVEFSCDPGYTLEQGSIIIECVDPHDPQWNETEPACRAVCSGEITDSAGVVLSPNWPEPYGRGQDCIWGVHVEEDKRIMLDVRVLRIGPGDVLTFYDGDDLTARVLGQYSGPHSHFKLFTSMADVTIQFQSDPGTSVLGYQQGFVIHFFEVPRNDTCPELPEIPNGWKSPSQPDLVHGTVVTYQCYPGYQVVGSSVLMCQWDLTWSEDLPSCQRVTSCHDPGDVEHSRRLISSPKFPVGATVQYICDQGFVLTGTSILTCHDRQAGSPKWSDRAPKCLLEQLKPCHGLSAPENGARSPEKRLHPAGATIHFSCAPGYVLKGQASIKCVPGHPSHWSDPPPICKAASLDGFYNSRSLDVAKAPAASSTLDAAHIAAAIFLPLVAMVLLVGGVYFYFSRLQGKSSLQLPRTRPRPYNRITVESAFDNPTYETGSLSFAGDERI
Kind of test: flow cytometry on CHO-K1 cells expressing cynomolgus monkey SEZ6. Background: A flow cytometer gives signals particle by particle.
Take B1: the midpoint of the response, the EC50, lay at 0.41 nM and the MFImax turned out to be 15000.

The molecule B2 showed an EC50 of 0.41 nM and an MFImax of 14700.

B3: it took 0.42 nM to reach a half-maximal effect (EC50) and the MFImax came out at 14300.

With B4, the EC50 was 0.43 nM and the MFImax is 15600.

B5 registered an EC50 of 0.95 nM and an MFImax of 14600.

B6 registered an EC50 of 0.65 nM and an MFImax of 13400.

Regarding B7, a half-maximal response (EC50) required 0.37 nM and the MFImax turned out to be 17300.

On to B8, for which the EC50 came to 0.48 nM and the MFImax is 16200.

B9 had a concentration for a half-maximal effect (EC50) of 0.54 nM and an MFImax of 15200.
